Laboratory results taken from patent publication US20260137802A1 (CRISPR THERAPEUTICS, published 2026).
One block for each binder: values may come before it.

Experiments:
[1] = molecular target: T1, human CD117 ectodomain (human, UniProt P10721 26-524, biotinylated (BirA co-expression) where captured on streptavidin biosensors); assay: BLI (Octet), biotinylated ectodomain on SA biosensor, 1:1 global fit, monomeric Fc
T1 construct: extracellular domain; also called cKIT; full length AviTagged CD117 ectodomain; not shown: C-terminal AviTag or His tag
Text: Pre-equilibrated streptavidin biosensors (SA, from Sartorius) were coated with biotinylated CD117 ectodomain by dipping the biosensors into wells containing an optimized dilution of human or cyno CD117 ectodomain. After re-equilibrating the biosensor tips in assay buffer, the biosensors were dipped into supernatant containing the VHH antibodies to allow association between the antibodies and the CD117 ectodomain. Finally, the biosensors were dipped into the assay buffer. The VHH antibodies disassociated from the CD117 ectodomain if association occurred. The association and dissociation of each VHH antibody was characterized qualitatively to identify VHHs that could bind both human and cyno CD117 ectodomains.
For example, kinetics parameters of the top VHH antibodies for binding to human CD117 and cynomolgus monkey CD117 ectodomain were obtained from the Octet® analysis by Biolayer Interferometry as described above. A minimum of three concentrations of purified VHH antibodies were tested per ectodomain target. The Octet® software was used to perform a global kinetic fit across all concentrations using a 1:1 binding model. This allowed determination of the kinetic parameters, association rate (kₒₙ), dissociation rate (koff) and equilibrium constant (KD) for the 9 antibodies of interest. Total chi-squared (X²) was also examined to determine the goodness of fit for the software's kinetic model.

[2] = molecular target: T1, human CD117 ectodomain; assay: ELISA, human CD117, monovalent Fc fusion
[3] = molecular target: T2, human CD117 on cells (SKMEL-3 cells, CD34+ HSC) (human, UniProt P10721 26-976); assay: flow cytometry, skMEL-3 cells, monomeric Fc
T2 construct: whole, on cells; also called CD117 on cell surfaces; CD117+ cells

[4] = molecular target: T2, human CD117 on cells (SKMEL-3 cells, …); assay: flow cytometry, CD34+ HSC, monomeric Fc
[5] = molecular target: cynomolgus monkey CD117 ectodomain (cynomolgus monkey); assay: BLI (Octet), biotinylated ectodomain on SA biosensor, 1:1 global fit, monomeric Fc
[6] = molecular target: T3, truncated CD117 ectodomain, Domains 1-2 (UniProt P10721 26-208, limits assumed, biotinylated); assay: BLI, truncated ectodomain on SA biosensor
T3 construct: domain: Domains 1-2; not shown: AviTag
Protocol: (§1) To identify the approximate binding epitopes of the VHH antibodies, truncated ectodomains were expressed as fusion polypeptides with an AviTag. Additionally, biotin is added to the protein during expression to allow capture of the material onto Streptavidin-coated (SA) biosensors. SA biosensors (Sartorius) were incubated with one of the truncated ectodomains. Full length CD117 ectodomain was used as a control. […] Except for P29 and P37, all others bind Domains 1-2 and Domains 1-3. Except for P37, all others bind Domains 1-4.

[7] = molecular target: T4, truncated CD117 ectodomain, Domain 1 (UniProt P10721 26-112, limits assumed, biotinylated); assay: BLI, truncated ectodomain on SA biosensor
T4 construct: domain: Domain 1; not shown: AviTag
Protocol: as §1

[8] = molecular target: T5, truncated CD117 ectodomain, Domains 1-3 (UniProt P10721 26-311, limits assumed, biotinylated); assay: BLI, truncated ectodomain on SA biosensor
T5 construct: domain: Domains 1-3; not shown: AviTag
Protocol: as §1

[9] = molecular target: T6, truncated CD117 ectodomain, Domains 1-4 (UniProt P10721 26-410, limits assumed, biotinylated); assay: BLI, truncated ectodomain on SA biosensor
T6 construct: domain: Domains 1-4; not shown: AviTag
Protocol: as §1

T1 sequence (P10721 26-524): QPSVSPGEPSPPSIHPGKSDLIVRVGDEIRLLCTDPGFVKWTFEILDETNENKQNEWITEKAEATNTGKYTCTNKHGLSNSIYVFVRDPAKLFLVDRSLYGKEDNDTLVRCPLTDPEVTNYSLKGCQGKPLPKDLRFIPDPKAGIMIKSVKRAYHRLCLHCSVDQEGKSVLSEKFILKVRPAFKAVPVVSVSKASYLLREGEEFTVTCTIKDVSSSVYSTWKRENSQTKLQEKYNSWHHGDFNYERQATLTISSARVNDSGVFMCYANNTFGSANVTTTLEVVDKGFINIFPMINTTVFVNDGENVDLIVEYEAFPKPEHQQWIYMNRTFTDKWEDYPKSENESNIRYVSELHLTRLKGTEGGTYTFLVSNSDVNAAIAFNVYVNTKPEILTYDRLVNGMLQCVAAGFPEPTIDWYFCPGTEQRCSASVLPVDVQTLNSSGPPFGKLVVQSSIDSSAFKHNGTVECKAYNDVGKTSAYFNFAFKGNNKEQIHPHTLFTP
T2 sequence (P10721 26-976): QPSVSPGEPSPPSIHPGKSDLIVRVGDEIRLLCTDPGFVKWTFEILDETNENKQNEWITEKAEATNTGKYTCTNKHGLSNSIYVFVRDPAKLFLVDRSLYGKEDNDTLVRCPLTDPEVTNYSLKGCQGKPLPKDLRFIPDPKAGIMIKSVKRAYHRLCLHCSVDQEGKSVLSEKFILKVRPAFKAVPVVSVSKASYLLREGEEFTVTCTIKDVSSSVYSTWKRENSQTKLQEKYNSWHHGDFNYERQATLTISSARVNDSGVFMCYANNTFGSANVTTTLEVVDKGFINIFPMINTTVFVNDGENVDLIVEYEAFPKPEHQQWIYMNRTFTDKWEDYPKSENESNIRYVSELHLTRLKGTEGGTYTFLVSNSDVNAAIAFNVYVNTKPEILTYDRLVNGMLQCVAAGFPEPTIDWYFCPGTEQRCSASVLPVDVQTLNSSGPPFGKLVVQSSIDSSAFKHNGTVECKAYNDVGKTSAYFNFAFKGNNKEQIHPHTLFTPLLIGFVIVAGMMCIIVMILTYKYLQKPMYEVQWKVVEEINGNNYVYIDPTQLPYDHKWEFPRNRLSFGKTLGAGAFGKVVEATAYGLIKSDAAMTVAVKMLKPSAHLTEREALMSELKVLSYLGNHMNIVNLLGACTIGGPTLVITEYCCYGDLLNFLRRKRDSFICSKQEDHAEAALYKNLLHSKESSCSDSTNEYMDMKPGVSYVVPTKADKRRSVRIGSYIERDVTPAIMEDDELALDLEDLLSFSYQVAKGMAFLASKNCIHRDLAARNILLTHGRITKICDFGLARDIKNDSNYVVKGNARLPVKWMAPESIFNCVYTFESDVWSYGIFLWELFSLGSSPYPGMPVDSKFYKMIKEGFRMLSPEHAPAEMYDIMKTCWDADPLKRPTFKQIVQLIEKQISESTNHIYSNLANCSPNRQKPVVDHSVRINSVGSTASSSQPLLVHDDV
T4 sequence (P10721 26-112 limits assumed): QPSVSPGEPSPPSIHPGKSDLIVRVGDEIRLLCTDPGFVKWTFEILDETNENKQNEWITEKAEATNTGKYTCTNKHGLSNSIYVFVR
T5 sequence (P10721 26-311 limits assumed): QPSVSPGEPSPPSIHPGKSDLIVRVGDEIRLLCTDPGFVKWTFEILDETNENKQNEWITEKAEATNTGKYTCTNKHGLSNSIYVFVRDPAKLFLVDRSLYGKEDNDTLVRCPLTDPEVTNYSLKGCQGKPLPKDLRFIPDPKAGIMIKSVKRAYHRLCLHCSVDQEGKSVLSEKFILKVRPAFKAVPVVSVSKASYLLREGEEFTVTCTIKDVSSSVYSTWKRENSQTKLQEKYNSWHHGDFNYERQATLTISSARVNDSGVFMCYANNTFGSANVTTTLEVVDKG
T3 sequence (P10721 26-208 limits assumed): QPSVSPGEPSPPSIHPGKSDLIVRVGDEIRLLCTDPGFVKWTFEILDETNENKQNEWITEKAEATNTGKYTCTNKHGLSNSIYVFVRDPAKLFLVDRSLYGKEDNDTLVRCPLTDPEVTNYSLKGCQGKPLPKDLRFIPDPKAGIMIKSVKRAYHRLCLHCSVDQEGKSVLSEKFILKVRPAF
T6 sequence (P10721 26-410 limits assumed): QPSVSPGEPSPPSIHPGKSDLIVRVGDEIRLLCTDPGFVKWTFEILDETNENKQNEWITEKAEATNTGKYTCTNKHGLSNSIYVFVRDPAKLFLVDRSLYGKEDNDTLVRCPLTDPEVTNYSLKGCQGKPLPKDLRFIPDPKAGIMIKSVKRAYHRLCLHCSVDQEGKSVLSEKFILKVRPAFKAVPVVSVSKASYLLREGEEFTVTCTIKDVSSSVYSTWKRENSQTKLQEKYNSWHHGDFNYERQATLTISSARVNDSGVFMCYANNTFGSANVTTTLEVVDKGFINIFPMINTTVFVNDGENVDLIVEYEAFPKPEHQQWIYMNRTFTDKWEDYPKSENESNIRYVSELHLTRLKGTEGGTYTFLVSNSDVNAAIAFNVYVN

binding result [6]: no binding | binding result [7]: no binding | binding result [8]: no binding
B2: P29 (VHH)
VHH: QVHLVESGGGLVQAGGSLGLSCAASGHTFSNYAMGWFRQAPGKEREFVAAISWSGGSTLYADSVKGRFTISRDNGENTVYLQMNSLKPEDTAVYYCALDSTGVYGTGYVSSRKGRYEYWGQGTLVTVSS
notes: also called P29/P54; anti-CD117 VHH P29

binding result [6]: no binding | binding result [7]: no binding | binding result [8]: no binding | binding result [9]: no binding
B5: P37 (VHH)
VHH: QVQLVESGGGLVQAGDSLRLSCAVSGRTLSNYFMAWLRQAPGKEREFVAAIHWSLGSTYYQDPVKGRFTISRDKAKNTVYLQMNTLKPEDTATYICAAGQHLSGLGGSAWSIEGDYWGQGTQVTVSS
notes: also called P37/P58; anti-CD117 VHH P37

More lines, now with the values behind:

B1: P-0035 (Fc fusion)
chain: QVQLVESGGGLVQAGGSLRLSCAASGGTFSIYPVGWFRQAPGKQREFVAAIGWSASGTYYGDSVEGRFTVSRDNARSTVYLRMSSLKPDDTAVYYCAAASGSNWRLGAIDEYDSWGQGTQVTVSS
notes: Any second Fc chain without VHH is not described in the text; also called monovalent form of P35; not shown: Fc fragment
Kd [1]: 2.89 nM | Kd [2]: 1.91 nM | EC50 [3]: 10 nM | EC50 [4]: 30 nM | Kd [5]: 7.02 nM

B3: P-0038 (Fc fusion)
chain: EVQLVESGGGLVQAGGSLRLSCAASGRTSGSYVMGWFRQAPGKEREFVAAISWSAGMTYYADSVKGRFTISRDNAKNTVYLQMNSLKPEDTAVYYCAADQRGVPAYYSDYALYDYWGQGTQVTVSS
notes: Any second Fc chain without VHH is not described in the text; also called monovalent form of P38; not shown: Fc fragment
Kd [1]: 8.85 nM | Kd [2]: 1 nM | EC50 [3]: 10 nM | EC50 [4]: 10 nM | Kd [5]: 19 nM

B4: P-0037 (Fc fusion)
chain: B5 VHH
notes: Any second Fc chain without VHH is not described in the text; also called monovalent form of P37; not shown: Fc fragment
Kd [1]: 28 nM | Kd [2]: 0.97 nM | EC50 [3]: 20 nM | EC50 [4]: > 50 nM | Kd [5]: 25 nM

B6: P-0031 (Fc fusion)
chain: EVQLVESGGGLVRAGGSLRLSCAASGRTFTYDARAWFRQAPGKEREFVAAISWSGGSTYYPNSMKGRFTISRDNAKNTVYLQMNSLKPEDTAVYYCAADESFPAYYSDYALYRYWGQGTLVTVSS
notes: Any second Fc chain without VHH is not described in the text; also called monovalent form of P31; not shown: Fc fragment
Kd [1]: 7.42 nM | Kd [2]: 0.52 nM | EC50 [3]: 3 nM | EC50 [4]: 4 nM | Kd [5]: 1.62 nM
